Data reported in the nanobody polyreactivity screen of Harvey et al. (2022).

Test: yeast display, Sf9 membrane polyspecificity reagent, FACS + sequencing; frameworks hold sequencing errors
Summary of the method: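 Nanobodies from a synthetic yeast display library (Saccharomyces cerevisiae BJ5465), induced 36–48 hours with galactose, were stained 1 hour at 4 °C with 10% biotinylated, detergent-solubilized Sf9 membrane reagent, enriched on streptavidin microbeads, then FACS-sorted. Anti-HA (expression) and streptavidin (reagent binding) fluorescence set low and high (top ~1%) gates. Polyreactivity labels come from the gate of origin. Genes were colony-PCR amplified, MiSeq 2 × 250 sequenced and filtered by CDR length.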

| Sequence | polyreactivity (PSR sort gate) |
| --- | --- |
| QVQLVESGGGLVQAGGSLRLSCAASGSTFKRYTMGWYRQAPGKERELVARISWGGSTTYYAYSVKGRFTISRDNAKNTVYLQMNSLKPEDTAVYYCAASWSWYGNRGTYRYPPRYDYWGQGTQVTVSS | high polyreactivity |
| QVQLVESGGGLVQAGGSLRLSCAASGSTFKSYAMGWYRQAPGKERELVAAITHRGSTYYADSVKGRFTISRDNAKNTVYLQMNSLKPEDTAVYYCNVRRIGNGRRVDYWGQGTQVTVSS | high polyreactivity |
| QVQLVESGGGLVQAGGSLRLSCAASGSTFKTYVMGWYRQAPGKERELVAGISDSGGTTYYADSVKGRFTISRDNAKNTVYLQMNSLKPEDTAGYYCAAVLYRRYTRARLDYWGQGTQVTVSS | high polyreactivity |
| QVQLVESGGGLVQAGGSLRLSCAASGSTFKVNAMGWYRQAAGKEREFVAAITKNGGRTYYADSVKGRFTISRDYAKNTVYLQMNSLKPEDTAVYYCAARLYLPIIVVDLYGYDYWGQGTQVTVSS | low polyreactivity |
| QVQLVESGGGLVQAGGSLRLSCAASGSTFKVNAMGWYRQAPGKERELVAAISRGGSTYADSVKGRFTISRDNAKNTVYLQMNSLKPEDTAVYYCAAKSRYFQPDEYYYWGQVTQVTVSS | high polyreactivity |
| QVQLVESGGGLVQAGGSLRLSCAASGSTFKVNVMGCYRKAPVKERELVAAINQSVRGTYYADSVKGRFTISRDNAKNTVYLQMNSLKPEDTAVYYCAAKIIVLRYVLSQEQRRYNYWGQGTQVTVSS | low polyreactivity |
| QVQLVESGGGLVQAGGSLRLSCAASGSTFKVYAIGWYRQAPGKERELVAGISSGGNTNYADSVKGRFTISRDNAKNTVYLQMNSLKPEDTAVYYCNTDWYLPRYVLLGYFSGTEDYWGQGTQVTVSS | low polyreactivity |
| QVQLVESGGGLVQAGGSLRLSCAASGSTFKVYAMGWYRQAPGKERELVAAISRSGGRTYYADSVKGRFTISRDNEKNTVYLQMNSLKPEDTAVYYCNSDYTYSQGHYSGSYDYWGQGSQVTVSS | high polyreactivity |
| QVQLVESGGGLVQAGGSLRLSCAASGSTFKVYTMGWYRPAPGKERELVAAISGGGGSTYYADSVKGRFTISRDNAKNTVYLQMNSLNPEDTAVYYCAAQKRGPGYPYYYWGQGTQVTVSS | high polyreactivity |
| QVQLVESGGGLVQAGGSLRLSCAASGSTFKYNAMGWSRQAPGKERELVASISRSGGSTYYADSVKGRFTISRDNAKNTVYLQMNSQKPEDTAVYYCNVRRFVHYEYWGQGTQVTVSS | high polyreactivity |
| QVQLVESGGGLVQAGGSLRLSCAASGSTFKYYAMGWYRQAPAKERELVAAISARTGSTYYADSVKGRFTISRDNAKNTVYLQMNRLKPEDTAVYYCNKLTWRGEVDYWGQGTQVTVSS | high polyreactivity |
| QVQLVESGGGLVQAGGSLRLSCAASGSTFKYYAMGWYRQAPGKERELVAAISRRGGSTYYADSVKGRFTISRDNAKNTVYLQMNSLKPEDTAVYYCAARLPGYYGIGDYWGQGTQVTVSS | high polyreactivity |
| QVQLVESGGGLVQAGGSLRLSCAASGSTFKYYAMGWYRQATGKERELLAAITWRGGSTYYADSVKGRFTISRDNAKNSVYLLMKSLKPEDTAVYYCARQRYYGLRTLMEHWGQGTQVTVSS | high polyreactivity |
| QVQLVESGGGLVQAGGSLRLSCAASGSTFKYYTMGWYRQAPGKERELVAAITSGGSTNYADSVKGRFTISRDNAKNTVYLQMNSLNPEDTAVYYCAAGGRRFYVGVIYDYWGQGNQVTVSS | high polyreactivity |
| QVQLVESGGGLVQAGGSLRLSCAASGSTFLDNAMGWYRQAPGKERELVAAITQSGSSTYYADSVKGRFTISRDNAKNTVYLQMNSLKPEDTAVYYCAADVPNISFDYWGQGTQVTVSS | low polyreactivity |
| QVQLVESGGGLVQAGGSLRLSCAASGSTFLDYAMGWYRQAPGKERELVAAITSGGSTYYADSVKGRFTISRDNAKNTVYLQMNSLKPEDTAVYYCAAEQTQLYSFGWDEYWGQGTQVTVSS | low polyreactivity |
| QVQLVESGGGLVQAGGSLRLSCAASGSTFLDYDMGWYRQAPGKERELVATINSVGSTYYADSVKGRFTISRDNAKNTVYLQMNSLKPEDTAVYYCAARQEPGWYPDVWWEYDYWGQGTQVTVSS | low polyreactivity |
| QVQLVESGGGLVQAGGSLRLSCAASGSTFLFNVMGWYRQAPGKERELVAAITSGASTYYADSVKGRFTISRDNAKNTVYLQMNSLEPEDTAVYYCAVDYSFRYDYVQRYYYWGQGTQVTVSS | high polyreactivity |
| QVQLVESGGGLVQAGGSLRLSCAASGSTFLFYAMGWYRQAPGKEREFVDAISWSGGSTFYADSVKGRFTISRYNAKNTVYLQMNSLKPEDTAVYYCAARQDGYSGRKLYYLGQGTQVTVSS | low polyreactivity |
| QVQLVESGGGLVQAGGSLRLSCAASGSTFLGNDMGWYRQEPGKERELVASINSATSTTYADSVKGRFTISRDNAKNTVYLQMNSLKPEDTAVYYCAARYYRPLDYWGQGTQVTVSS | low polyreactivity |
| QVQLVESGGGLVQAGGSLRLSCAASGSTFLINAMGWYRQAPGKERELVAAITASGGSTYADSVKGRFTISRDNAKNTVYLQMNSLKPEDTAVYYCAARYFPRHRYYYWGQGTQVTVSS | high polyreactivity |
| QVQLVESGGGLVQAGGSLRLSCAASGSTFLITALGWYRQAPGKEREFVADISSSDGSTYYADSVKGRFTISRDNAKNTVYLQMNSLKPEDTAVYYCAAAHVEGSYHKYYYWGQGTQVTVSS | high polyreactivity |

| Sequence | polyreactivity (PSR sort gate) |
| --- | --- |
| QVQLVESGGGLVQAGGSLRLSCAASGSTFLNYAMGWYRQAPGKERELVAAISGRGGRTYYADSVKGRFTISRDNAKNTVYLQMNSLKPEDTAVYYCARRVRFPGGTFYYWGQGTQVTVSS | high polyreactivity |
| QVQLVESGGGLVQAGGSLRLSCAASGSTFLNYVMGWYRQAPGKERELVATINSGDSTNYADSVKGRFTISRDNAKNTVYLQMNSLKPEDTAVYYCAAEGNYWVDYWGQGTQVTVSS | low polyreactivity |
| QVQLVESGGGLVQAGGSLRLSCAASGSTFLNYVMGWYRQAPGKERELVATINSGDSTTYADSVKGRFTISRDNAKNTVYLQMNSLKPEDTAVYYCNADPYYYSTYWSVKYDYWGQGTQVTVSS | low polyreactivity |
| QVQLVESGGGLVQAGGSLRLSCAASGSTFLRYAMGWYIQAPGKERELVATISTSRGSTHYADSVKGRFTISRYNAKNTVYLQMNSLKPEDSAVYYCATRGGKWYYRTRQPYPYAMDYWGQGTQVTVSS | high polyreactivity |
| QVQLVESGGGLVQAGGSLRLSCAASGSTFLRYVMGWYRQAPGKERELVAAIDSGGSTHYADSVKGRFTISRDNAKNTVYLQMNSLKPEDTAVYYCNVDVSSDDWYPSTADFDYWGQGTQVTVSS | high polyreactivity |
| QVQLVESGGGLVQAGGSLRLSCAASGSTFLSNAMGWYRQAPGKERELVAGITSGTSTYYADSVKGRFTISRDNAKYTVYLQMNSLKPEDTAVYYCNADDAEVLYQYVEYDYWGQGTQVTVSS | low polyreactivity |
| QVQLVESGGGLVQAGGSLRLSCAASGSTFLSYAMGWYRQAPGKERELVAAISWSDVNTYYADSVKGRFTISRDNAKNTVYLQMNSLKPEDTAVYYCNARYYLYWGQGTQVTVSS | low polyreactivity |
| QVQLVESGGGLVQAGGSLRLSCAASGSTFLSYAMGWYRQAPGKERELVAVISWSGVSTYYADSVKGRFTISRDNAKNTVYLQMNSLNPEDTEVYYCNTGHHYIRTYGYWGQGTQVTVSS | low polyreactivity |
| QVQLVESGGGLVQAGGSLRLSCAASGSTFLTKAMGWNRQAPGKERELVAAISRSGGSTYYADSVKGRFTISRDNAKNTVYLQMNSLKPEDTAVYYGAAYSWRYQAWEFGYWGQGTQVTVSS | high polyreactivity |
| QVQLVESGGGLVQAGGSLRLSCAASGSTFLTYAMGWYRQAAGKERELVAGISYSTGSTYYADSVKGRFTISRDNAKNTVYLQMNSLKPEDTAVYYCAADEWDGLWYYYYFNYEDWGQGTQVTVSS | low polyreactivity |
| QVQLVESGGGLVQAGGSLRLSCAASGSTFLTYAMGWYRQAPGKEREFVAAISSTGTGRTYYADSVKGRFTISRDNAKNTVYLQMNSLKPEDTAVYYCAADLYGTYDYWGQGTQVTVSS | low polyreactivity |
| QVQLVESGGGLVQAGGSLRLSCAASGSTFLTYAMGWYRQAPGKERELLAASTRSTSTYADSVKGRFTISRDNAKNTVYFQMNSLKPEDTAVYYCNVDSYFRWWYDEWGQGTQVTVSS | high polyreactivity |
| QVQLVESGGGLVQAGGSLRLSCAASGSTFLWNAMGWYRQAPGKERELVAAISYSGGSTYYADSVKGRFTISRDNAKNTVYLQMNSLKPEDTAVYYCAKEWFYDPYPPGYDYWGQGTQVTVSS | low polyreactivity |
| QVQLVESGGGLVQAGGSLRLSCAASGSTFLYNAMGWYRQAPWKERELVAAISWSGGSTYYADSVKGRFTISRDNAKNTVYLQMNSLKPEDTAVYYCAAEQRRFTGYDYWGQGTQVTVSS | high polyreactivity |
| QVQLVESGGGLVQAGGSLRLSCAASGSTFLYNTMGWYRPAPGKERELVAAITSAGSTNYADSVKGRFTISRDNAKNTVYLQMNSLKPEDTAVYYCAAVGPTSGARYTYDYWGQGTQVTVSS | low polyreactivity |
| QVQLVESGGGLVQAGGSLRLSCAASGSTFLYNTMGWYRQAPGKERELVATITSRGDRTYYADSVKGRFTISRDNAKNTVYLQMNSLNPEDTGVYYCARDYGPYLSPENPAPMDYWGQGTQVTVSS | low polyreactivity |
| QVQLVESGGGLVQAGGSLRLSCAASGSTFLYYAMGWYREAPGKERELVAVISWSGVSTYYADSVKGRFTISRDNAKNTVYLQMKSLKPEDTAVYYCNTGNHYIRTYGYWGQGTQVTVSS | low polyreactivity |
| QVQLVESGGGLVQAGGSLRLSCAASGSTFLYYAMGWYRQAPGKEREFVAAISISGGSTYYADSVKGRFTISRDNAKNTVYLQMNSLKPEDTAVYYCAARKKEYKPGNYWGQGTQVTVSS | low polyreactivity |
| QVQLVESGGGLVQAGGSLRLSCAASGSTFLYYAMGWYRQAPGKEREFVAAISKGSGRTYYADSVKGRFTISRDNAKNTVYLQLNSLKPEDTAVYYCAAAKWRGYPYQSDYWGQGTQVTVSS | high polyreactivity |
| QVQLVESGGGLVQAGGSLRLSCAASGSTFLYYAMGWYRQAPGKERQLVAAISGSGGSTYYADSVKGRFTISRDNAKNNVYLQMYSLKPEDTAVYYCNAVARRHGLGPYDYWGQGTQVTVSS | high polyreactivity |
| QVQLVESGGGLVQAGGSLRLSCAASGSTFLYYAMGWYRQEPGKERELVAAINWNGGSTYYADSVKGRFTISRDNAKNTVYLQMNSLKPEDTAVYYCNAYGISPYEYYYWGQGTQVTVSS | low polyreactivity |
